Reference: US20130095104A1 (OMEROS, published 2013)

B1: chimeric anti-FZD10 mAb B9L9.3 (antibody, V domains shown)
VH: AVTLDESGGGLQTPGGALSLVCKASGFTFSSFNMFWVRQEPGKGLEWVAGIDDDGSYPNYGSAVKGRATISRDNGQSTLRLQLNNLRAEDTGTYFCAKSGYGGSWGGYIADDIDAWGHGTEVIVSS
VL: ALTQPASVSANPGETVKITCSGDGSYAGSYYYGWYQQKAPGSAPVTLIYYNNKRPSDIPSRFSGSLSGSTNTLTITGVRADDEAVYFCGSADNSGAAFGAGTTLTVL
notes: also called Chimeric B9L9.3; progeny clone B9L9.3
B2: chimeric anti-FZD10 mAb B9L32.2 (antibody, human IgG1, V domains shown)
VH: B1 VH
VL: ALTQPASVSANPGETVKITCSGSDSSYAGSYYYGWYQQKAPGSAPVTLIYYNNKRPSDIPSRFSGSLSGSTNTLTITGVRADDEAVYFCGSADNSGAAFGAGTTLTVL
notes: also called progeny clone B9L32.2
B3: humanized B9L9.3 antibody (antibody, human IgG1, lambda, V domains shown)
VH: EVQLVESGGGLVQPGGSLRLSCAASGFTFSSFNMFWVRQAPGKGLEWVAGIDDDGSYPNYGSAVKGRATISRDNSKNTLYLQMNSLRAEDTAVYYCAKSGYGGSWGGYIADDIDAWGQGTLVTVSS
VL: ELTQPPSVSVSPGQTARITCSGDGSYAGSYYYGWYQQKPGQAPVTLIYYNNKRPSGIPERFSGSLSGSTNTLTISGVQAEDEADYYCGSADNSGAAFGGGTKLTVLG
notes: Mature humanized heavy chain with human IgG1 constant region and mature humanized light chain with human lambda constant region; also called hB9L9.3; humanized B9L9.3 mAb

Legend:
[1] = target: T1, human Frizzled-10 (FZD10) (human, UniProt Q9ULW2 21-581); experiment: saturation binding of recombinant antibody on SYO-1 cells; Table 2 comparison with the humanized antibody
T1 construct: no signal peptide limits are stated; also called FZ10; CD350
T1 sequence: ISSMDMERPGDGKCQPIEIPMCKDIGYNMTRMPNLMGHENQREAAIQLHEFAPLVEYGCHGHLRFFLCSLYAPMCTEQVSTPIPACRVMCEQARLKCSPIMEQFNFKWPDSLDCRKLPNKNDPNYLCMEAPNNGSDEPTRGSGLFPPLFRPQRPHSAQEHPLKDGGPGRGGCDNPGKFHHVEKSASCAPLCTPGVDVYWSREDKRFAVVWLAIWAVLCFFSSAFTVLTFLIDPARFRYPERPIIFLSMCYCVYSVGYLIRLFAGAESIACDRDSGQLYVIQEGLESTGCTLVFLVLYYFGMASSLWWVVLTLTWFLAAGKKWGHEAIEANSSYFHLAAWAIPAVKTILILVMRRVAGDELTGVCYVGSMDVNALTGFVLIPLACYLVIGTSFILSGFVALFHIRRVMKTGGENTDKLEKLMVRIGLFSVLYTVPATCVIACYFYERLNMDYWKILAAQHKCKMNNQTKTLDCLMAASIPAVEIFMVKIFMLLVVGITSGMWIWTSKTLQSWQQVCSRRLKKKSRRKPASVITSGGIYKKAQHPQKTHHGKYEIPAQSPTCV

[2] = target: T1, human Frizzled-10 (FZD10); experiment: saturation binding of recombinant antibody on SYO-1 cells (FZD10+), flow cytometry MFI against Ab (nM)
Protocol: Affinity was determined by measuring saturation binding kinetics of the recombinant antibodies on SYO-1 cells.

[3] = target: T1, human Frizzled-10 (FZD10); experiment: saturation binding on SYO-1 cells, flow cytometry; B9L9.3 on SYO-1 cells, Example 1 (FIG. 3)
Protocol: (§1) Recombinant antibodies were generated by cloning PCR-amplified V regions (Cummings et al., 2007 Supra) into a vector that supported expression of human IgG1 in 293F cells. Saturation binding kinetics were determined by either staining FZD10-specific DTLacO cells with various concentrations of fluorescent-labeled soluble antigen, or by staining FZD10-transfected cells or cancer cell lines intrinsically expressing FZD10 with various concentrations of the recombinant chimeric anti-FZD10 mAbs. To assay cell surface FZD10 binding, cells were stained with chimeric mAb clones B9A5 (parent), B9132.2 and B9L9.3 (progeny) or secondary antibody alone, all at concentrations ranging from […] to 800 nM, and analyzed by immunocytofluorimetry.

[4] = target: T1, human Frizzled-10 (FZD10); experiment: saturation binding on SYO-1 cells, flow cytometry; B9L32.2 on SYO-1 cells
Protocol: as §1

[5] = target: T1, human Frizzled-10 (FZD10); experiment: saturation binding of recombinant antibody on SYO-1 cells

| Binder | Kd [1] [nM] | EC50 (read off the curve) [2] [nM] | Kd [3] [nM] | Kd [4] [nM] | Kd [5] [nM] |
| --- | --- | --- | --- | --- | --- |
| B1 | 0.16 | ~0.1 | 0.22 |  |  |
| B2 |  |  |  | 40 |  |
| B3 |  | ~0.2 |  |  | 0.22 |
